Laboratory results published in patent US20170362330A1 (University of California, published 2017).

Tests used:
[1] = molecular target: T1, cynomolgus monkey CD46 (cynomolgus monkey, UniProt A0A2K5WCL8 35-377); test: FACS on CHO-cynoCD46 cells, 4 C overnight, MFI against antibody concentration
T1 construct: whole, on cells; also called cyno monkey CD46; CHO-cynoCD46
T1 sequence: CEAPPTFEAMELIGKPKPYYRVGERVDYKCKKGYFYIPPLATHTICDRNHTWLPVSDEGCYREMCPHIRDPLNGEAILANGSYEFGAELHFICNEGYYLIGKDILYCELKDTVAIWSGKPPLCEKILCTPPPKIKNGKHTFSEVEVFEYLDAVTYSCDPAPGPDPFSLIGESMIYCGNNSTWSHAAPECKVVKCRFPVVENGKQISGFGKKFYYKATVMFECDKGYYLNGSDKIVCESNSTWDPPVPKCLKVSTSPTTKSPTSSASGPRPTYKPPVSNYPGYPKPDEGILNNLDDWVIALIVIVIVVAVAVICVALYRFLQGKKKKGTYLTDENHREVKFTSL
Procedure: (§1) FIGS. 6. YS5 KD measurement on CHO cells transfected with cynomolgus monkey CD46. YS5 was incubated with CHO-cynoCD46 cells at 4° C. overnight and binding analyzed by FACS.

[2] = molecular target: T2, recombinant Fc fusion protein composed of the Sushi domain 1 and 2 of human CD46 (human, UniProt P15529 35-159); test: phage and yeast display selection and FACS screening with recombinant CD46-Fc fusion
T2 construct: domain: Sushi domain 1 and 2; Produced in HEK293 cells, purified by protein A; also called CD46-Fc fusion; recombinant CD46-Fc fusion protein; not shown: Fc part
T2 sequence (looked up): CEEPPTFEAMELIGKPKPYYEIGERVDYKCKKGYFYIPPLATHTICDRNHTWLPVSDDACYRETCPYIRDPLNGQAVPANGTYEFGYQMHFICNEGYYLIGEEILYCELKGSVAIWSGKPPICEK
Text: To identify novel anti-human CD46 antibodies, a recombinant Fc fusion protein composed of the Sushi domain 1 and 2 of human CD46 was created. As complement elements bind predominantly to domain 3 and 4, the choice of domain 1 and 2 minimize selection of antibodies that could potently interfere with normal complement function. This CD46-Fc fusion was produced and purified from transfected HEK293 cells by protein A affinity chromatography. For human antibody selection, a 5×10⁹ member phagemid display library was created using cDNAs pooled from peripheral blood mononuclear cells of 426 healthy human donors, and the library was selected the recombinant CD46-Fc fusion protein. Following three rounds of selection, binding phagemid were screened by FACS and sequenced. In parallel, an alternatively strategy was employed that involve first selecting the library on live tumor cells followed by transferring the output from round 1 phagemid selection into a yeast surface display vector, and then FACS-based selection using low concentration ligands to enrich high affinity binders to the recombinant CD46-Fc fusion protein. The resulting antibodies bind with high affinity to both live tumor cells and the recombinant human CD46 protein.

[3] = molecular target: T1, cynomolgus monkey CD46; test: FACS on CHO cells transfected with cynomolgus monkey CD46, 4 °C overnight, MFI curve fit
Procedure: as §1

B1: YS5 (antibody, V domains shown)
VH: QVQLVQSGGGVVQPGRSLRLACAASGLTVNNYAMHWVRQAPGKGLEWVAVISYDGNNKYYADSVKGRFTISRDNSKNTLYLQMNSLRAEDTAVYYCAKGGGYFDLWGRGTLVTVSS
VL: QSVLTQPPSVSGAPGQRVTISCTGSSSNIGAGYDVHWYQQLPGTAPKLLIYGNNNRPSGVPDRFSGSKSGTSASLAITGLQAEDEADYYCSSYTSGTWLFGGGTKLTVL
notes: Human scFv from phage/yeast display, converted into full human IgG1; also called YS5 IgG1; anti-CD46 antibody (YS5)
EC50 (read off the curve) [1]: ~2 nM
binding result [2]: binds
Kd [3]: 1.95 nM
